The chains are these.
B1: NOTCH4 peptide 1604-1619 (Neurogenic locus notch homolog protein 4), 16-mer library wild type / NSP9 (ORF1ab Nsp9, residues 4141-4253) (parent)
chain 1: TFQGAWLGAPEPWEPL
chain 2: NNELSPVALRQMSCAAGTTQTACTDDNALAYYNTTKGGRFVLALLSDLQDLKWARFPKSDGTGTIYTELEPPCRFVTDTPKGPKVKYLYFIKGLNNLNRGMVLGSLAATVRLQ
B2: NCOA2 peptide 1075-1090 (Nuclear receptor coactivator 2), 16-mer library wild type / NSP3 UBl1 (ORF1ab Nsp3a Ub1, residues 819-925) (parent)
chain 1: DEGALLDQLYLALRNF
chain 2: APTKVTFGDDTVIEVQGYKSVNITFELDERIDKVLNEKCSAYTVELGTEVNEFACVVADAVIKTLQPVSELLTPLGIDLDEWSMATYYLFDESGEFKLASHMYCSFY
B3: NYNRIN peptide 1032-1047 (Protein NYNRIN), 16-mer library wild type / NSP3 UBl1 (ORF1ab Nsp3a Ub1, residues 819-925) (parent)
chain 1: PSLSEEILRALSLHDP
chain 2: B2 chain 2

The variants in the first assay derive from B1. The settings on record: with NSP9 (ORF1ab Nsp9, residues 4141-4253); bait immobilised on MaxiSorp plates (10 µg), library pre-cleared on GST, 2 h binding at 4 °C, five washes; one round per day, days 1-4; value from days 2 and 3; keep out of graded; scale: average fractional NGS count over selection days 2 and 3.
Consider chain 1 TFQGAWLGAPEPTEPL [chain 1 W13T], for which the screen value was determined as 4.47e-05.
Same read-out and setting: the value for chain 1 TFQGAWLGAPEPIEPL [chain 1 W13I] was 3.37e-05.
Regarding chain 1 TFQGAWLGAPEPFEPL [chain 1 W13F], the screen value was determined as 0.
Take chain 1 TFQGAWLGAPEPSEPL [chain 1 W13S]: the screen value worked out at 2.43e-05.
The same measure, in the same setting: the result for chain 1 TFQGAWLGAPEPMEPL [chain 1 W13M] reads 0.
Same read-out and setting: the value for chain 1 TFQGAWLGAPEPQEPL [chain 1 W13Q] was 0.
chain 1 TFQGAWLGAPEPWESL [chain 1 P15S]: the screen value worked out at 0.
chain 1 TFQGAWLGAPEPWEYL [chain 1 P15Y]: the screen value was determined as 0.
In the case of chain 1 TFQGAWLGAPEPWEPT [chain 1 L16T], the screen value was 0.
Consider chain 1 TFQGAWLGAPEPWEPG [chain 1 L16G], for which the screen value came out at 0.
Consider chain 1 TFQGAWLGAPEPWEPV [chain 1 L16V], for which the screen value was 0.
As to chain 1 TFQGAWLGAPEVWEPL [chain 1 P12V], the screen value amounted to 0.000373.
The same measure, in the same setting: the result for chain 1 TFQGAWLGAPEQWEPL [chain 1 P12Q] reads 3.5e-05; that for chain 1 TFQGAWLGAPERWEPL [chain 1 P12R], 8.09e-05.
As to chain 1 TFQGAWLGAPEWWEPL [chain 1 P12W], the screen value was found to be 0.
chain 1 TFQGAWLGAPEHWEPL [chain 1 P12H]: the screen value is 9.54e-05.
Same read-out and setting: the value for chain 1 TFQGAWLGAPEKWEPL [chain 1 P12K] was 8.35e-05; that for chain 1 TFQGAWLGAPEAWEPL [chain 1 P12A] was 3.02e-05; that for chain 1 TFQGAWLGAPEFWEPL [chain 1 P12F] was 1.76e-05.
The same measure, in the same setting: the result for chain 1 TFQGAWLGAPEYWEPL [chain 1 P12Y] reads 2.09e-05.
On the same count and under the same terms, the value for chain 1 TFQGAWLGAPETWEPL [chain 1 P12T] was 0; that for chain 1 TFLGAWLGAPEPWEPL [chain 1 Q3L] was 0; that for chain 1 TFVGAWLGAPEPWEPL [chain 1 Q3V] was 0.
Consider chain 1 TFEGAWLGAPEPWEPL [chain 1 Q3E], for which the screen value amounted to 2.09e-05.
The same measure, in the same setting: the value for chain 1 TFQYAWLGAPEPWEPL [chain 1 G4Y] was 0; that for chain 1 TFQPAWLGAPEPWEPL [chain 1 G4P] was 0; that for chain 1 TFQLAWLGAPEPWEPL [chain 1 G4L] was 0.
As for chain 1 TFQRAWLGAPEPWEPL [chain 1 G4R], the screen value worked out at 0.
On the same count and under the same terms, the result for chain 1 TFQDAWLGAPEPWEPL [chain 1 G4D] reads 0; that for chain 1 TFQVAWLGAPEPWEPL [chain 1 G4V], 0; that for chain 1 TFQGAWLGAPHPWEPL [chain 1 E11H], 0.
Turning to chain 1 TFQGAWLGAPDPWEPL [chain 1 E11D], the screen value came out at 0.
Consider chain 1 TFQGAWLGAPNPWEPL [chain 1 E11N], for which the screen value came out at 0.
In the case of chain 1 TFQGAWLGAPSPWEPL [chain 1 E11S], the screen value is 0.
With chain 1 TFQGAWLGAPLPWEPL [chain 1 E11L], the screen value worked out at 0.
On to chain 1 TFQGAWLGAPYPWEPL [chain 1 E11Y], for which the screen value was 0.
Same read-out and setting: the result for chain 1 TFQGAWLGAPEPWFPL [chain 1 E14F] reads 3.92e-05; that for chain 1 TFQGAWLGAPEPWHPL [chain 1 E14H], 0; that for chain 1 TFQGAWLGAPEPWLPL [chain 1 E14L], 7.93e-05.
The same measure, in the same setting: the value for chain 1 TFQGAWLGAPEPWVPL [chain 1 E14V] was 0.000155; that for chain 1 TFQGAWLGAPEPWGPL [chain 1 E14G] was 0.
With chain 1 TFQGAWLGAPEPWQPL [chain 1 E14Q], the screen value turned out to be 0.
For the variant chain 1 TVQGAWLGAPEPWEPL [chain 1 F2V], the screen value came out at 0.
On the same count and under the same terms, the result for chain 1 TIQGAWLGAPEPWEPL [chain 1 F2I] reads 0.
Still for that read-out and setting: the result for chain 1 TAQGAWLGAPEPWEPL [chain 1 F2A] reads 0.000265; that for chain 1 TWQGAWLGAPEPWEPL [chain 1 F2W], 0.
In the case of chain 1 TDQGAWLGAPEPWEPL [chain 1 F2D], the screen value is 6.3e-05.
On to chain 1 TLQGAWLGAPEPWEPL [chain 1 F2L], for which the screen value worked out at 0.
On the same count and under the same terms, the value for chain 1 TGQGAWLGAPEPWEPL [chain 1 F2G] was 5.47e-05; that for chain 1 TPQGAWLGAPEPWEPL [chain 1 F2P] was 6.51e-05; that for chain 1 TEQGAWLGAPEPWEPL [chain 1 F2E] was 3.22e-05.
The same measure, in the same setting: the value for chain 1 TFQGAWLGAAEPWEPL [chain 1 P10A] was 0.
The same measure, in the same setting: the value for chain 1 TFQGAWLGAEEPWEPL [chain 1 P10E] was 4.5e-05.
For chain 1 TFQGAWLGAQEPWEPL [chain 1 P10Q], the screen value turned out to be 0.
Still for that read-out and setting: the value for chain 1 TFQGAWLGAIEPWEPL [chain 1 P10I] was 0; that for chain 1 TFQGAWLGALEPWEPL [chain 1 P10L] was 0.
With chain 1 TFQGAWLGAWEPWEPL [chain 1 P10W], the screen value is 0.00035.
Still for that read-out and setting: the result for chain 1 TFQGAWLGAGEPWEPL [chain 1 P10G] reads 0; that for chain 1 TFQGAWLGADEPWEPL [chain 1 P10D], 0.
In the case of chain 1 TFQGAILGAPEPWEPL [chain 1 W6I], the screen value was found to be 0.
Same read-out and setting: the value for chain 1 TFQGANLGAPEPWEPL [chain 1 W6N] was 0.
Same read-out and setting: the result for chain 1 TFQGAWLEAPEPWEPL [chain 1 G8E] reads 0; that for chain 1 TFQGAWLMAPEPWEPL [chain 1 G8M], 0; that for chain 1 TFQGAWLKAPEPWEPL [chain 1 G8K], 0.
Same read-out and setting: the value for chain 1 TFQGAWLRAPEPWEPL [chain 1 G8R] was 0.
On to chain 1 TFQGAWLVAPEPWEPL [chain 1 G8V], for which the screen value came out at 0.
The same measure, in the same setting: the value for chain 1 TFQGAWLGWPEPWEPL [chain 1 A9W] was 4.99e-05.
Regarding chain 1 TFQGAWLGPPEPWEPL [chain 1 A9P], the screen value amounted to 0.
With chain 1 TFQGAWLGMPEPWEPL [chain 1 A9M], the screen value turned out to be 0.
As to chain 1 TFQGAWDGAPEPWEPL [chain 1 L7D], the screen value was found to be 0.
Consider chain 1 TFQGAWIGAPEPWEPL [chain 1 L7I], for which the screen value turned out to be 0.
On the same count and under the same terms, the value for chain 1 TFQGAWMGAPEPWEPL [chain 1 L7M] was 0.
The same measure, in the same setting: the value for chain 1 TFQGTWLGAPEPWEPL [chain 1 A5T] was 0; that for chain 1 TFQGVWLGAPEPWEPL [chain 1 A5V] was 0.000292.
On the same count and under the same terms, the result for chain 1 TFQGLWLGAPEPWEPL [chain 1 A5L] reads 5.68e-05; that for chain 1 TFQGFWLGAPEPWEPL [chain 1 A5F], 4.11e-05; that for chain 1 TFQGEWLGAPEPWEPL [chain 1 A5E], 0.
In the case of chain 1 TFQGKWLGAPEPWEPL [chain 1 A5K], the screen value was determined as 0.
The same measure, in the same setting: the value for chain 1 TFQGSWLGAPEPWEPL [chain 1 A5S] was 0; that for chain 1 TFQGDWLGAPEPWEPL [chain 1 A5D] was 0.
Still for that read-out and setting: the value for chain 1 TFQGGWLGAPEPWEPL [chain 1 A5G] was 0.

In another assay the parent is B2. The settings on record: with NSP3 UBl1 (ORF1ab Nsp3a Ub1, residues 819-925); bait immobilised on MaxiSorp plates (10 µg), library pre-cleared on GST, 2 h binding at 4 °C, five washes; one round per day, days 1-4; value from days 2 and 3; keep out of graded; scale: average fractional NGS count over selection days 2 and 3.
On to chain 1 DEGALLDQLYSALRNF [chain 1 L11S], for which the screen value came to 0.000175.
Regarding chain 1 DEGALLDQLYMALRNF [chain 1 L11M], the screen value was 0.
On the same count and under the same terms, the result for chain 1 DEGALLDQKYLALRNF [chain 1 L9K] reads 0; that for chain 1 DEGALLDQLYLALKNF [chain 1 R14K], 0.

The variants in the next assay derive from B3. The settings on record: with NSP3 UBl1 (ORF1ab Nsp3a Ub1, residues 819-925); bait immobilised on MaxiSorp plates (10 µg), library pre-cleared on GST, 2 h binding at 4 °C, five washes; one round per day, days 1-4; value from days 2 and 3; keep out of graded; scale: average fractional NGS count over selection days 2 and 3.
Take chain 1 PSASEEILRALSLHDP [chain 1 L3A]: the screen value was determined as 0.
On the same count and under the same terms, the result for chain 1 PRLSEEILRALSLHDP [chain 1 S2R] reads 0.
Still for that read-out and setting: the result for chain 1 PSLSEEILRAHSLHDP [chain 1 L11H] reads 0; that for chain 1 PSLSEEILRMLSLHDP [chain 1 A10M], 0.
On the same count and under the same terms, the result for chain 1 PSLSEETLRALSLHDP [chain 1 I7T] reads 0; that for chain 1 PSLSEEDLRALSLHDP [chain 1 I7D], 0; that for chain 1 PSLSHEILRALSLHDP [chain 1 E5H], 0.
chain 1 PSLSMEILRALSLHDP [chain 1 E5M]: the screen value is 0.
In the case of chain 1 PSLSEEIHRALSLHDP [chain 1 L8H], the screen value was determined as 0.

The record behind these values is article PMC12102759.
